T1: extracellular domain of human CD79b (human, UniProt P40259 29-159)
T1 construct: also called huCD79becd; huCD79b-ecd
T1 sequence: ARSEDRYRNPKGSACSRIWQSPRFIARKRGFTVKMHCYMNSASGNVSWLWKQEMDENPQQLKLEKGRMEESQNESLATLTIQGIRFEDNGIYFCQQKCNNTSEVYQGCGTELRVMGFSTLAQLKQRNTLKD

B1: huMA79b graft variant SEQ ID NO: 17 (Fab, name in Kabat numbering, V domains shown)
VH: EVQLVESGGGLVQPGGSLRLSCAASGYTFSSYWIEWVRQAPGKGLEWVGEILPGGGDTNYNEIFKGRFTISADTSKNTAYLQMNSLRAEDTAVYYCTRRVPVYFDYWGQGTLVTVSS
VL: DIQMTQSPSSLSASVGDRVTITCKASKSVDYDGDSFLNWYQQKPGKAPKLLIYAASNLESGVPSRFSGSGSGTDFTLTISSLQPEDFATYYCQQSNEDPLTFGQGTKVEIKR
notes: Fab on phage; rest as huMA79b graft; also called SPL-2 mutation
B2: huMA79b graft variant SEQ ID NO: 59 (Fab, name in Kabat numbering, V domains shown)
VH: B1 VH with T28S, S30K
VL: B1 VL with K27Q
notes: Fab on phage; rest as huMA79b graft
B3: huMA79b graft variant SEQ ID NO: 34 (Fab, name in Kabat numbering, V domains shown)
VH: B1 VH
VL: B1 VL with K27Q, A55G, N57K, E59L, S60R
notes: as for B2
B4: huMA79b graft variant SEQ ID NO: 20 (Fab, name in Kabat numbering, V domains shown)
VH: B1 VH
VL: B1 VL with K27Q, E97S
notes: Fab on phage; rest as huMA79b graft; also called SPL-5 mutation
B5: huMA79b graft variant SEQ ID NO: 62 (Fab, name in Kabat numbering, V domains shown)
VH: B1 VH with T28P, S30G, S31R, I34V, E35N
VL: B1 VL with K27Q
notes: as for B2
B6: huMA79b graft variant SEQ ID NO: 27 (Fab, name in Kabat numbering, V domains shown)
VH: B1 VH
VL: B1 VL with K27Q, S56R, N57K, E59K
notes: as for B2
B7: huMA79b graft variant SEQ ID NO: 24 (Fab, name in Kabat numbering, V domains shown)
VH: B1 VH
VL: B1 VL with K27Q, S56R, N57K, E59G, S60N
notes: as for B2
B8: huMA79b graft variant SEQ ID NO: 35 (Fab, name in Kabat numbering, V domains shown)
VH: B1 VH
VL: B1 VL with K27Q, L58R, E59K
notes: as for B2
B9: huMA79b graft variant SEQ ID NO: 23 (Fab, name in Kabat numbering, V domains shown)
VH: B1 VH
VL: B1 VL with K27Q, N57R
notes: as for B2
B10: huMA79b graft variant SEQ ID NO: 63 (Fab, name in Kabat numbering, V domains shown)
VH: B1 VH with S30K, S31K
VL: B1 VL with K27Q
notes: as for B2
B11: huMA79b graft variant SEQ ID NO: 49 (Fab, name in Kabat numbering, V domains shown)
VH: B1 VH
VL: B1 VL with K27Q, E97D
notes: as for B2
B12: huMA79b graft variant SEQ ID NO: 18 (Fab, name in Kabat numbering, V domains shown)
VH: B1 VH
VL: B1 VL with K27Q, L58R
notes: as for B2
B13: huMA79b graft variant SEQ ID NO: 36 (Fab, name in Kabat numbering, V domains shown)
VH: B1 VH
VL: B1 VL with K27Q, N57K, E59G
notes: as for B2
B14: huMA79b graft variant SEQ ID NO: 55 (Fab, name in Kabat numbering, V domains shown)
VH: B1 VH with T28P, S30R, E35Q
VL: B1 VL with K27Q
notes: as for B2
B15: huMA79b graft variant SEQ ID NO: 32 (Fab, name in Kabat numbering, V domains shown)
VH: B1 VH
VL: B1 VL with K27Q, S56R, N57H, E59K, S60R
notes: as for B2
B16: huMA79b graft variant SEQ ID NO: 21 (Fab, name in Kabat numbering, V domains shown)
VH: B1 VH
VL: B1 VL with K27Q, E97K
notes: as for B2
B17: huMA79b graft variant SEQ ID NO: 53 (Fab, name in Kabat numbering, V domains shown)
VH: B1 VH
VL: B1 VL with K27Q, Q93D, S95R, E97A
notes: as for B2
B18: huMA79b graft variant SEQ ID NO: 61 (Fab, name in Kabat numbering, V domains shown)
VH: B1 VH with T28Y, S30T
VL: B1 VL with K27Q
notes: as for B2
B19: huMA79b graft variant SEQ ID NO: 28 (Fab, name in Kabat numbering, V domains shown)
VH: B1 VH
VL: B1 VL with K27Q, S56R, N57K, E59A
notes: as for B2
B20: huMA79b graft variant SEQ ID NO: 31 (Fab, name in Kabat numbering, V domains shown)
VH: B1 VH
VL: B1 VL with K27Q, S56R, N57K, E59G
notes: Fab on phage; rest as huMA79b graft; also called L2-38 mutation
B21: huMA79b graft variant SEQ ID NO: 29 (Fab, name in Kabat numbering, V domains shown)
VH: B1 VH
VL: B1 VL with K27Q, S56G, N57I, E59A, S60R
notes: as for B2
B22: huMA79b graft variant SEQ ID NO: 51 (Fab, name in Kabat numbering, V domains shown)
VH: B1 VH
VL: B1 VL with K27Q, Q93N, Q94N, E97G, T101N
notes: as for B2
B23: huMA79b graft variant SEQ ID NO: 19 (Fab, name in Kabat numbering, V domains shown)
VH: B1 VH
VL: B1 VL with K27Q, E59K
notes: as for B2
B24: huMA79b graft variant SEQ ID NO: 33 (Fab, name in Kabat numbering, V domains shown)
VH: B1 VH
VL: B1 VL with K27Q, A55S, S56R, N57Y, E59S, S60R
notes: as for B2
B25: huMA79b graft variant SEQ ID NO: 56 (Fab, name in Kabat numbering, V domains shown)
VH: B1 VH with T28P, S30T, E35N
VL: B1 VL with K27Q
notes: as for B2
B26: huMA79b graft variant SEQ ID NO: 30 (Fab, name in Kabat numbering, V domains shown)
VH: B1 VH
VL: B1 VL with K27Q, S56R, N57K, E59R
notes: as for B2
B27: huMA79b graft variant SEQ ID NO: 52 (Fab, name in Kabat numbering, V domains shown)
VH: B1 VH
VL: B1 VL with K27Q, Q94P, S95D, D98A, L100R
notes: as for B2
B28: huMA79b graft variant SEQ ID NO: 50 (Fab, name in Kabat numbering, V domains shown)
VH: B1 VH
VL: B1 VL with K27Q, E97L
notes: as for B2
B29: huMA79b graft variant SEQ ID NO: 58 (Fab, name in Kabat numbering, V domains shown)
VH: B1 VH with S30N, S31R, E35N
VL: B1 VL with K27Q
notes: as for B2
B30: huMA79b graft variant SEQ ID NO: 25 (Fab, name in Kabat numbering, V domains shown)
VH: B1 VH
VL: B1 VL with K27Q, S56R, N57K, E59K, S60R
notes: as for B2
B31: huMA79b graft variant SEQ ID NO: 26 (Fab, name in Kabat numbering, V domains shown)
VH: B1 VH
VL: B1 VL with K27Q, S56R, N57Y, E59K, S60R
notes: Fab on phage; rest as huMA79b graft; also called L2-29 mutation

Positions count from the first letter of the chain named.

The target of the assay is T1, extracellular domain of human CD79b. Description: phage selection, Fab on phage, plate-bound huCD79becd.
B1: the binding result is reported as “binds”.
Regarding B2, the binding result is listed as “binds”.
For B3 the value was “binds”; for B4, “binds”.
B5: the binding result is “binds”.
Turning to B6, the binding result is reported as “binds”.
For B7, the binding result is given as “binds”.
For the molecule B8, the binding result is recorded as “binds”.
With B9, the binding result is given as “binds”.
Consider B10, for which the binding result is recorded as “binds”.
Take B11: the binding result is recorded as “binds”.
In the case of B12, the binding result is “binds”.
Take B13: the binding result was “binds”.
Turning to B14, the binding result is on record as “binds”.
For B15, the binding result is reported as “binds”.
On to B16, for which the binding result is “binds”.
As for B17, the binding result is listed as “binds”.
Consider B18, for which the binding result is reported as “binds”.
For B19 the value was “binds”; for B20, “binds”.
For B21, the binding result is “binds”.
As to B22, the binding result is recorded as “binds”.
For the molecule B23, the binding result is “binds”.
As to B24, the binding result was “binds”.
Turning to B25, the binding result is “binds”.
As to B26, the binding result was “binds”.
Regarding B27, the binding result is “binds”.
As to B28, the binding result was “binds”.
The value for B29 was “binds”; that for B30 was “binds”; that for B31 was “binds”.
